System: LLO91-99-specific T cells
Assay: epitope-tag (HSV) staining for surface-bound MHC / dissociation experiments by flow cytometry
Type: cell-based
Description: FIG. 5: Development of a reversible MHC multimer staining technology. (a) LLO91-99-specific T cells were stained for 30 min with monomeric or tetrameric (“tet”) LLO91-99/H2-K^d/β2m-HSV-tag or p60217-225/H2-K^d/β2m-HSV-tag reagents. Cells were fixed without washing (upper histogram) or after 2 washing steps (lower histogram) with 1% paraformaldehyde and subsequently stained for remaining HSV-epitope-tag on the cell surface (x-axis). (b+c) LLO91-99-specific T cells were stained for 45 min with LLO91-99/H2-K^dStrep-tag® II peptide/β2-HSV-tag:Strep:Tactin® polypeptide polymers (IBA GmbH) (“poly”), briefly washed to remove unbound reagents, and incubated in the presence (b) or absence (c) of 1 mM d-biotin; all steps were performed at 4° C. Cell aliquots were harvested after different time intervals (indicated above histograms), fixed with 1% paraformaldehyde, and stained for remaining HSV-epitope-tag on the cell surface (x-axis).
FIG. 6: Improvement of MHC-Strep-tag® II peptide/Strep-Tactin® polypeptide (IBA GmbH) multimer reagents. […]
FIG. 7: Reversible MHC multimer staining and T cell function. […] (a) Staining for recombinant MHC-molecules (detected by epitope-tag staining, x-axis) on differently treated T cells. […] Numbers of viable bacteria (y-axis) were determined 48 h following Lysteria infection. […]

B1: monomeric MHC/epitope molecules: monomeric LLO91-99/H2-K^d/β2m-HSV-tag reagent (protein)
MHC heavy: GPHSLRYFVTAVSRPGLGEPRFIAVGYVDDTQFVRFDSDADNPRFEPRAPWMEQEGPEYWEEQTQRAKSDEQWFRVSLRTAQRYYNQSKGGSHTFQRMFGCDVGSDWRLLRGYQQFAYDGRDYIALNEDLKTWTAADTAALITRRKWEQAGDAEYYRAYLEGECVEWLRRYLELGNETLLRTDSPKAHVTYHPRSQVDVTLRCWALGFYPADITLTWQLNGEDLTQDMELVETRPAGDGTFQKWAAVVVPLGKEQNYTCHVHHKGLPEPLTLRWKLPPSTVSNT
b2m: IQKTPQIQVYSRHPPENGKPNILNCYVTQFHPPHIEIQMLKNGKKIPKVEMSDMSFSKDWSFYILAHTEFTPTETDTYACRVKHASMAEPKTVYWDRDM
peptide: GYKDGNEYI
modifications: left off: a dimerising Fc or GST; small tags and cut ends
notes: monomeric LLO91-99/H2-K^d/β2m-HSV-tag reagent
After brief washing, 4° C.
  MHC monomers on the cell surface: all reagent-derived MHC monomers disappear from the cell surface
Fixed immediately with paraformaldehyde, no washing
  interaction of MHC monomers with T cell surface: some detectable interaction
